Numbered stars: 1 amine (or outer) side, 2 acyl side, 3 side chain; on linkers, the order of the positions; unused ones are H or OH. Bridge positions count the residues as written; N and C are the ends. Square brackets hold non-standard residues; d marks the D form. Primed or numbered codes have the meaning given here. Peptide text beside a SMILES is read from it. * marks the point of attachment. MB(12) = Monomer B (PyrS), pyrrolidine stapling residue with N-allyl carbamate; MC(3) = Monomer C (PyrR), pyrrolidine stapling residue with N-allyl carbamate; R6 = (R)-2-(5-hexenyl)alanine, C=CCCCC[C@@](C)(N[*:1])C(=O)[*:2]; S6 = (S)-2-(5-hexenyl)alanine, C=CCCCC[C@](C)(N[*:1])C(=O)[*:2]; MC = Monomer C = PyrR, Alloc-pyrrolidine stapling residue; MA = Monomer A (Az), N-Alloc azetidine stapling residue; S7 = C[C@@](CCCCCC=[*:3])(N[*:1])C(=O)[*:2]; R8 = C=CCCCCCC[C@@](C)(N)C(=O)O; S8 = C=CCCCCCC[C@](C)(N)C(=O)O; MB(7) = not defined here; Nle = CCCC[C@H](N)C(=O)O; Hex = hexyl, CCCCCC*; Octyl = CCCCCCCC*
B1: FP0725a (peptide)
peptide: Ac-PQ[MA]ILD[R6]HVRRVWR-NH2
modifications: staple 3-7; also: amino staple: CO2 extruded from MA carbamate staple with Pd(PPh3)4
notes: also called FP-0725 (amino staple)
B2: FP0735a (peptide)
peptide: Ac-PQ[R6]ILD[MA]HVRRVWR-NH2
modifications: staple 3-7; also: amino staple: CO2 extruded from carbamate staple with Pd(PPh3)4
notes: also called FP-0735 (amino staple)
B3: FP0738a (peptide)
peptide: Ac-PQ[S7]ILD[MA]HVRRVWR-NH2
modifications: staple 3-7; also: amino staple: CO2 extruded from carbamate staple with Pd(PPh3)4
notes: also called FP-0738 (amino staple); S7/Az
B4: FP0767a (peptide)
peptide: Ac-PQ[R6]ILD[MC]HVRRVWR-NH2
modifications: staple 3-7; also: amino staple (-N(R')-), from carbamate staple by metathesis then Pd(0) CO2 extrusion
notes: also called FP-0767 (amino staple)
B5: FP0736a (peptide)
peptide: Ac-PQ[S6]ILD[MA]HVRRVWR-NH2
modifications: staple 3-7; also: amino staple: CO2 extruded from carbamate staple with Pd(PPh3)4
notes: also called FP-0736 (amino staple)
B6: FP0763a (peptide)
peptide: Ac-PQ[S7]ILD[MB(7)]HVRRVWR-NH2
modifications: staple 3-7; reading uncertain; also: amino staple: CO2 extruded from carbamate staple with Pd(PPh3)4
notes: also called FP-0763 (amino staple)
B7: FP0745a (peptide)
peptide: Ac-PQ[MC]ILD[R6]HVRRVWR-NH2
modifications: staple 3-7; also: amino staple: CO2 extruded from carbamate staple with Pd(PPh3)4
notes: also called FP-0745 (amino staple); PR/R6

Legend:
[1] = system: TCF/LEF Luciferase reporter HEK293 cell lines; assay: TCF/LEF reporter assay; type: cell-based; conditions: Table 2
Method: FIG. 2. […] FIG. 2 depicts exemplary data from TCF/LEF reporter assays. Y-axes illustrate luminescence, and X-axes illustrate concentrations of peptides. […] TCF/LEF Luciferase reporter HEK293 cell lines (BPS Bioscience) were treated with dilution series of FP0025c and FP00217c Isomer 2 for 18 hours. 300 ng/mL of Wnt3a (Peprotech) was added to the cells for the final 6 hours of incubation. Luciferase activity was measured using Bright-Glo Luciferase Assay (Promega) according to manufacturer's protocol.
In some embodiments, a provided assay is a TCF/LEF reporter assay. In some embodiments, in an exemplary such assay, TCF/LEF Luciferase reporter HEK293 cell lines (BPS Bioscience) were treated with dilution series of provided peptides for 18 hours. 300 ng/mL of Wnt3a (Peprotech) was added to the cells for the final 6 hours of incubation. Luciferase activity was measured using Bright-Glo Luciferase Assay (Promega) according to manufacturer's protocol. […] Applicant also notes that teachings of the present disclosure are not restricted to a particular mechanism of action of described agents.

full-length beta-catenin [2] = molecular target: T1, full-length beta-catenin (UniProt P35222 2-781, limits assumed); assay: competition FP; amino staple (cyclic)
T1 construct: mature; also called full-length ß-Catenin; β-catenin
T1 sequence (looked up): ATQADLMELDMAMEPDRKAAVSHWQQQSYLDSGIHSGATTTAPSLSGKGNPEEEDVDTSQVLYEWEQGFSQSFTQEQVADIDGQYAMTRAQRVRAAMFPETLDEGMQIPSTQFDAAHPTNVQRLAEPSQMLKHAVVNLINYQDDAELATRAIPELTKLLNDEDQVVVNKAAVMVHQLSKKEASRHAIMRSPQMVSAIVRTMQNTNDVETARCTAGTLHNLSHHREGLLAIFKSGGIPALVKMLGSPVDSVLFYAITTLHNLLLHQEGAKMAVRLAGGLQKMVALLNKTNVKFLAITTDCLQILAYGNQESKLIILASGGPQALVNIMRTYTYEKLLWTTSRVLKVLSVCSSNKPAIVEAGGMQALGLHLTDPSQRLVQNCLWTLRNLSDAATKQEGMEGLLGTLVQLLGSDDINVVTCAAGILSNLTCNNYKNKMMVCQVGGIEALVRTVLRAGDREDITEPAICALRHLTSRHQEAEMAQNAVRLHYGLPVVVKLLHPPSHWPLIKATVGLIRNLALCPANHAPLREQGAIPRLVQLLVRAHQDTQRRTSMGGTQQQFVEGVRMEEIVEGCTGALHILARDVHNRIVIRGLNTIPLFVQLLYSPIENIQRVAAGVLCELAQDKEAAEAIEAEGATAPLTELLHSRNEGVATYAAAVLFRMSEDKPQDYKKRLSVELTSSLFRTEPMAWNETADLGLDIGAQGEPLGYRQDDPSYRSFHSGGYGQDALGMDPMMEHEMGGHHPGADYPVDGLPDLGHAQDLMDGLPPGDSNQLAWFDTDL
Method: In some embodiments, a competition fluorescence polarization assay is used to assess binding of provided compounds to beta-catenin. In an exemplary procedure, solutions of provided compounds, e.g., provided stapled peptides, were prepared in a buffer (e.g., 50 mM Tris pH 8.0, 250 mM NaCl, 2% glycerol, 0.5 mM EDTA, 0.02% w/v sodium azide) using a 3-fold serial dilution from 5 µM. Probe solution (15 nM full-length ß-Catenin, 20 nM FITC labeled peptide in buffer) was prepared and incubated for a period of time, e.g., 5 minutes, and the a volume, e.g., 40 µL per well plated in suitable plate, e.g., a black polystyrene 384-well plate (Corning). Equal volume of the serial diluted peptide was added to the plate and incubated protected from light for 15 minutes prior to read. Reads were performed on a Spectramax M5 (Molecular Devices) in duplicate. Suitable probe was FITC-PEG1-PQ-S5-ILD-S5-HVRRVWR (SEQ ID NO: 1) (hydrocarbon staple formed by two S5 via olefin metathesis) and/or FITC-bA-PQ-S5-ILD-S5-HVRRVWR (SEQ ID NO: 3) (hydrocarbon staple formed by two S5 via olefin metathesis). […] Another peptide, FPO217c (Ac-AR_8ILDAHIM$B5$RVW (SEQ ID NO: 280), with N-terminal proline removed and valine replaced with isoleucine compared to FP0025c) was prepared.

full-length beta-catenin [3] = molecular target: T1, full-length beta-catenin; assay: competition FP, grade of FP EC50 (+: 500-5000 nM)
Procedure, shortened: (§1)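 Compound 3-fold serially diluted from 5 µM in Tris pH 8.0, 250 mM NaCl buffer, added to premixed 15 nM full-length β-catenin and 20 nM FITC-labelled stapled axin-site peptide probe. Incubated 15 min in the dark, polarization read in duplicate.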

full-length beta-catenin [4] = molecular target: T1, full-length beta-catenin; assay: competition FP, grade of FP EC50 (++: 100-500 nM)
Procedure, shortened: as §1

Row | Molecule | TCF/LEF Reporter Inhibition at 10 μM [1] [%] | EC50 (full-length beta-catenin [2]) [nM] | FP EC50 (full-length beta-catenin [3]) [nM] | FP EC50 (full-length beta-catenin [4]) [nM]
1 | 0ct-P-A-R8-I-L-D-A-H-V-MB-R-V-W-1NH2 (Octyl-PA[R8]ILDAHV[MB(12)]RVW-NH2; staple 3-10) [FP0324c] | 51 | – | – | –
2 | CC[C@H](C)[C@H](NC(=O)[C@H](CO)NC(=O)[C@H](C)NC(=O)[C@@H]1CCCN1C(C)=O)C(=O)N[C@@H](CC(C)C)C(=O)N[C@@H](CC(=O)O)C(=O)N[C@@H](C)C(=O)N[C@@H](Cc1c[nH]cn1)C(=O)N[C@H](C(=O)N[C@@H](CCC(N)=O)C(=O)N[C@@H](CCCNC(=N)N)C(=O)N[C@H](C(=O)N[C@@H](Cc1c[nH]c2ccccc12)C(N)=O)C(C)C)C(C)C [FP0098, Ac-P-A-S-I-L-D-A-H-V-Q-R-V-W-NH2] (Ac-PASILDAHVQRVW-NH2) | 18 | – | – | –
3 | CCCC[C@H](NC(=O)[C@@H](NC(=O)[C@H](CCCNC(=N)N)NC(=O)[C@H](CCC(N)=O)NC(=O)[C@@H](NC(=O)[C@H](Cc1c[nH]cn1)NC(=O)[C@H](CCC(=O)O)NC(=O)[C@H](CC(=O)O)NC(=O)[C@H](CC(C)C)NC(=O)[C@@H](NC(=O)[C@H](CO)NC(=O)[C@H](CCC(=O)O)NC(=O)[C@@H]1CCCN1C(C)=O)[C@@H](C)CC)C(C)C)C(C)C)C(=O)N[C@@H](CCCCN)C(N)=O [FP0110, Ac-P-E-S-I-L-D-E-H-V-Q-R-V-nL-K-NH2] (Ac-PESILDEHVQRV[Nle]K-NH2) | 19 | – | – | –
4 | Ac-P-A-MC-I-L-D-A-H-V-S8-R-V-W-NH2 (Ac-PA[MC(3)]ILDAHV[S8]RVW-NH2; staple 3-10) [FP0099] | 38 | – | – | –
5 | Hex-P-A-R8-I-L-D-A-H-V-MB-R-V-W-NH2 (Hex-PA[R8]ILDAHV[MB(12)]RVW-NH2; staple 3-10) [FP0325c] | 73 | – | – | –
6 | B1 | – | 580 | 500 to 5000 | –
7 | B2 | – | 2360 | 500 to 5000 | –
8 | B3 | – | 200 | – | 100 to 500
9 | B4 | – | 700 | 500 to 5000 | –
10 | B5 | – | 470 | – | 100 to 500
11 | B6 | – | 1110 | 500 to 5000 | –
12 | B7 | – | 210 | – | 100 to 500
